Laboratory results from article PMC6510727 (2019).
Where two headings read alike, the source gives them in different places.

Experiments:
[1] = target: transducin α (Tα*) (Bos taurus, UniProt P04695); assay: PDE activation assay fit (membranes)
[2] = target: T1, PDE catalytic subunit (PDEcat) (Bos taurus, UniProt P11541)
T1 chain 1: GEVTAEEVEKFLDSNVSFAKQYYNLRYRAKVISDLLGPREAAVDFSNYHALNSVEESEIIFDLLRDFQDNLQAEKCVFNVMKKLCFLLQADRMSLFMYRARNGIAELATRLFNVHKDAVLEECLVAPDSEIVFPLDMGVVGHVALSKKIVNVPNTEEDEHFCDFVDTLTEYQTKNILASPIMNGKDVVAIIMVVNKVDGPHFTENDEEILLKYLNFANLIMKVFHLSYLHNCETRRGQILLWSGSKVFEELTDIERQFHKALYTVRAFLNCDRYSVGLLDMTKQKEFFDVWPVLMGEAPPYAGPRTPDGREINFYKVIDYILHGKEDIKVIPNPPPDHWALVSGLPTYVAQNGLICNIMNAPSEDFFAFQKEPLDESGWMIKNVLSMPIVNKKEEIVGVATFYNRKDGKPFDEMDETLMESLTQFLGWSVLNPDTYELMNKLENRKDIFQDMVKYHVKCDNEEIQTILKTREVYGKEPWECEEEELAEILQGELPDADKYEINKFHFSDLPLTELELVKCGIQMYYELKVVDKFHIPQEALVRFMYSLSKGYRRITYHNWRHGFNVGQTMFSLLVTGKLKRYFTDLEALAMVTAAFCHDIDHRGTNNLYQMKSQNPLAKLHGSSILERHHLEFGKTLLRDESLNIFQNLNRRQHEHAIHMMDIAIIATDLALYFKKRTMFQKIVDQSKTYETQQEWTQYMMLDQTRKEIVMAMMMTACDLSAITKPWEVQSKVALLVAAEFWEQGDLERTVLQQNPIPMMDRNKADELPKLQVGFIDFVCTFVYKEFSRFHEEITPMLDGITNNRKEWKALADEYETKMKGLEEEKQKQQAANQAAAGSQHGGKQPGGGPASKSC
T1 chain 2: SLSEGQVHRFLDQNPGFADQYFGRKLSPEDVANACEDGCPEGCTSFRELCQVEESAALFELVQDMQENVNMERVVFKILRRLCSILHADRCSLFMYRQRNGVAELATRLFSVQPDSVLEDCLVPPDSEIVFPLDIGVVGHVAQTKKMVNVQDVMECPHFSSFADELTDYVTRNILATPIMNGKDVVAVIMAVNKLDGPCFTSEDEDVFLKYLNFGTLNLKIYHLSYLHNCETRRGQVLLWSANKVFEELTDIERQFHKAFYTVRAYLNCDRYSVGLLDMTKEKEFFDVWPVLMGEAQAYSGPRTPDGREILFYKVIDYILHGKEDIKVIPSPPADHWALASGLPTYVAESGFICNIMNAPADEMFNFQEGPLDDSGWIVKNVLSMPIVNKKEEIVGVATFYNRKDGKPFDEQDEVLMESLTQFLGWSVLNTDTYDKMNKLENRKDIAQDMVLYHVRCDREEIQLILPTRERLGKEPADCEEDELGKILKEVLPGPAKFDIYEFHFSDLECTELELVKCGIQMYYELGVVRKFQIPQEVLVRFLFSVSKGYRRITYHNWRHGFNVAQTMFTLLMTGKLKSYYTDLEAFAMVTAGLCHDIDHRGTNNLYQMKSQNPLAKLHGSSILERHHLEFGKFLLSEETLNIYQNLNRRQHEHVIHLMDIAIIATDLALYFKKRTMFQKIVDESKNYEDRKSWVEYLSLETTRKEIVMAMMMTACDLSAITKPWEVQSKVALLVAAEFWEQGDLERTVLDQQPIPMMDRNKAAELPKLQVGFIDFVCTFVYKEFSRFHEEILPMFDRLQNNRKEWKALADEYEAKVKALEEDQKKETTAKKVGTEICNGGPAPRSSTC

[3] = target: T1, PDE catalytic subunit (PDEcat); assay: PDE activity assay (membranes)
[4] = target: transducin α (Tα-S*) (Bos taurus, UniProt P04695); assay: PDE activation assay fit (solution)
transducin α (Tα-S*), sequence (P04695 2-350): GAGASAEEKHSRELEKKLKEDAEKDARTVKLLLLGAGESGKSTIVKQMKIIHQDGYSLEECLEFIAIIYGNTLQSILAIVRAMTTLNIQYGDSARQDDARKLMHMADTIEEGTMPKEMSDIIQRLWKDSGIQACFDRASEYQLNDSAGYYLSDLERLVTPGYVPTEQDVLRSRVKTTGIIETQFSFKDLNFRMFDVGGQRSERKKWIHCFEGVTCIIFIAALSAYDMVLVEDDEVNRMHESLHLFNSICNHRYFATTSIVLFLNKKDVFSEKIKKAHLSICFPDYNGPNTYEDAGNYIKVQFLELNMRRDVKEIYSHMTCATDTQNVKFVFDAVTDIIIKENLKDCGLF

transducin α (Tα*), sequence (P04695 2-350): as above

B1: PDEγ (protein)
chain: MNLEPPKAEIRSATRVMGGPVTPRKGPPKFKQRQTRQFKSKPPKKGVQGFGDDIPGMEGLGTDITVICPWEAFNHLELHELAQYGII
modifications: activated Tα, membranes
- Kd [1]: 0.0565 nM

B2: PDEγ (protein)
chain: B1 chain
- Kd [2]: 0.005 nM

B3: PDEγ (protein)
chain: B1 chain
modifications: membranes
- Kd [3]: 0.055 nM

B4: PDEγ (protein)
chain: B1 chain
modifications: GTPγS-bound Tα
- Kd [4]: 4.5 nM
